# Tested on: MS2 coat protein
# Experiment: apparent KD of MS2 coat protein; designed switch direction (-1 OFF switch, 1 ON switch): -1; higher = weaker reporter binding
# How it was run: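 The buffer was Tris-HCl pH 7.5 with KCl, MgCl2, BSA, DTT, tRNA and Tween-20. In it, SNAP-549-labelled MS2 coat protein was titrated in doubling steps from 0.7 or 1.5 nM to 3 µM over chip-bound RNA switches transcribed by stalled E. coli RNA polymerase on Illumina chips. Apparent KD is the per-design median over clusters of curve fits to normalised fluorescence.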
# [1] = input ligand: microRNA oligo, concentration not stated
# [2] = Eterna round: R95, input ligand: microRNA oligo, concentration not stated
# [3] = Eterna round: R95, input ligand: FMN 200 uM
# [4] = Eterna round: R95, input ligand: none
Sequence,apparent KD of MS2 coat protein (input ligand: FMN 200 uM),apparent KD of MS2 coat protein [1],apparent KD of MS2 coat protein (input ligand: none),apparent KD of MS2 coat protein [2],apparent KD of MS2 coat protein [3],apparent KD of MS2 coat protein [4]
"GCAGCAUAGUUUACUAACUGUUACAUGAGGAUCACCCAUGUUGAGGAUAUGGUCUGGAUUACAGGCCAGAAGGCGACAAGCUGC [Eli exng3 - 028] (Eterna round: R96, puzzle: Exclusion NG 3)",18.1 nM,13 nM,16.9 nM,,,
AAAGAACAUGAGGAUCACCCAUGUGAGGAUAUGCGAAAACCGCUGACAAACCAGACGGGCAGAAGGCAUAUGGU [Birima] (puzzle: Exclusion 1),,,,56.2 nM,,
CUUUAGCUAGGAUAUACAUGAGGAUCACCCAUGUUAGCGGUCAAUUGGGCCGCGGGUUGUAGAAGGAGCAUUAA [Aniscerile] (puzzle: Exclusion 3),,,,28.6 nM,,
"AAUAAGUAUGUGAGGAUAUUGAGGAGGAGGAGGGACAAGAAGGCACAUGAGGAUCACCCAUGUAGGAAAGGACG [JR_BMEx4_Sub002] (Eterna round: R97, puzzle: Brourd's mod of Exclusion 4)",46.9 nM,,28 nM,,,
"AGCUGUGGCCAAGGAUAUCUAGCCUUAAAUACCGACGUAUAGUCGGACAUGAGGAUCACCCAUGUGGAGAAGGUGGUCUCAGCA [Eli eng2 - 044] (Eterna round: R96, puzzle: Exclusion NG 2)",82 nM,53 nM,74.3 nM,,,
"GUUUUCAGACGGAGAUCCUACAUGAGGAUCACCCAUGUCUCACUAGCUUUUUGCUCGUCUUAUCCUCCUCUGUUCUC [Elimod 28 - Jieux - Sensor, turn-off variant 1] (Eterna round: R97, puzzle: Sensor, turn-off variant 1)",336 nM,,460 nM,,,
"UAUAUAUAGUAAGGAUAUGUAUAUAAUUUAUAAACAGAAGGUACUGACAUGAGGAUCACCCAUGUUUUAGUGUGGGCAUGUAGA [JMF's solution 55] (Eterna round: R96, puzzle: Exclusion NG 1)",,64.4 nM,,,,
"GUCACAUGGACAUAGGAUCACAUGAGGAUCACCCAUGUGACUAACAAGCUUUUUGCUCGUCUUAUGUCCAUGUGAAA [Stov1/15-A2] (Eterna round: R97, puzzle: Sensor, turn-off variant 1)",14.1 nM,,13.2 nM,,,
GAAAAGGGAGGAUAUACAAGAAGAAAAGAAAAGAAAAGAAAACAUGAGGAUCACCCAUGUAGAAGGCCCAAAAG [Default title] (puzzle: Exclusion 2),,,,18.7 nM,22.6 nM,23.8 nM
"GAUCAUGCAGGAUAUACAUGGACCAUGAAAACAUGGAUUUCACAUGAGGAUCACCCAUGUAGAAGGGCAUGAUC [Omei Ex2 A9] (Eterna round: R97, puzzle: Exclusion 2)",82.1 nM,,777 nM,,,
"GUCACAUGGACAUAGGAUCACAUGAGGAUCACCCAUGUGACUAACAAGCUUUUUGUUCGUCUUAUGUCUAUGUGAAG [Stov1/16-B3] (Eterna round: R97, puzzle: Sensor, turn-off variant 1)",13.1 nM,,16.9 nM,,,
"UUCGUGCAGCUUUGCUGUACGCGUACAUGAGGAUCACCCAUGUAGGAUAUGGUACGCUUUGCGUGCUAGAAGGAUAUGGAGAGG [JL EXNG3 1.34] (Eterna round: R96, puzzle: Exclusion NG 3)",62.9 nM,28.7 nM,37.6 nM,,,
ACCACCUUAGUCAGGAUAUAGCUUCUAGCAAGAUACUAGAAGGGACAUGAGGAUCACCCAUGUAAAGGUGCUAA [Ramais] (puzzle: Brourd's mod of Exclusion 4),,,,29 nM,25.3 nM,27.2 nM
"CAAUAAAAGCGAGGAUAUCCGUAUAAAGAUACAGGAGAAGGUGCGGGUACUCCUCACAUGAGGAUCACCCAUGUAAGAAAUAAA [Erxeraso] (Eterna round: R96, puzzle: Exclusion NG 1)",67.4 nM,33.7 nM,57.1 nM,,,
GCAUGCUAUGUCAGGAUAUACCUGUGGAUACAUAGGUAGAAGGGACAUGAGGAUCACCCAUGUCCUAAUCAUGC [Fiskers BMX 4 - 24] (puzzle: Brourd's mod of Exclusion 4),,,,12.1 nM,,
"AGGUGUAGAGGAUAUUUAUUCUUCCACAUGAGGAUCACCCAUGUCCUGGUCACCAAGGACGGAGAAGGCUACACCA [Omei Ex5 D24] (Eterna round: R97, puzzle: Exclusion 5)",57.4 nM,,63.5 nM,,,
"AGCUGUGGCCGAGGAUAUACACAUGAGGAUCACCCAUGUAGGCGCGGAUACGCGCUAAAAUAAGUGUAGAAGGCGGUCUCAGCA [Eli eng2 - 056] (Eterna round: R96, puzzle: Exclusion NG 2)",20.1 nM,17.4 nM,18.1 nM,,,
